Experimental data taken from patent publication US7288251 (ABGENIX, dated 2007).

B1: monoclonal antibody 21.4.1 (antibody, human IgG2, kappa, V domains shown)
VH: not shown
VL: DIQMTQSPSSVSASVGDRVTITCRASQGIYSWLAWYQQKPGKAPNLLIYTASTLQSGVPSRFSGSGSGTDFTLTISSLQPEDFATYYCQQANIFPLTFGGGTKVEIKR
notes: Human IgG2 kappa from hybridoma; also called mAb 21.4.1; hybridoma 21.4.1 (LN 15853), ATCC PTA-3605
B2: monoclonal antibody 23.29.1 (antibody, human IgG2, kappa, V domains shown)
VH: QVQLVESGGGVVQPGRSLRLSCAASGFTFSSYAMHWVRQAPGKGLEWVAVISYDGSNKYYADSVKGRFTIYRDNSKNTLYLQMNSLRAEDTAVYYCARRGHYGNNYYSYYGLDVWGQGTTVTVSS
VL: DIVMTQSPLSLPVTPGEPASISCRSSQSLLPGNGYNYLDWYLQKPGQSPQLLIYLGSNRASGVPDRFSGSGSGTDFTLKISRVEAEDVGIYYCMQALQTPRTFGQGTKVEIKR
notes: Human IgG2 kappa from hybridoma; also called mAb 23.29.1; hybridoma 23.29.1 (LN 15878), ATCC PTA-4553
B3: monoclonal antibody 7.1.2 (antibody, human IgG2, kappa, V domains shown)
VH: QVQLVESGGGVVQPGRSLRLSCAASGFTFSSYGMHWVRQAPGKGLEWVAVISNDGDNKYHADSVWGRFTISRDNSRSTLYLQMNSLRAEDTAVYYCARRGMGSSGSRGDYYYYYGLDVWGQGTTVTVSS
VL: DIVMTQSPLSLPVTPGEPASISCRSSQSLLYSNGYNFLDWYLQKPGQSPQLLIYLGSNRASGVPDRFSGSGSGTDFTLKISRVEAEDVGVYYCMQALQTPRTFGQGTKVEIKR
notes: Human IgG2 kappa from hybridoma; also called hybridoma 7.1.2 (LN 15849), ATCC PTA-3601

Tests used:
TNFR-2/Ig = molecular target: T1, TNFR-2/Ig; assay: ELISA, TNFR-2/Ig coated, antibody 1 µg/ml
T1 construct: also called Tumor Necrosis Factor Receptor-2
Description: (§1) We then washed the plate with PBST (PBS+0.1% Tween-20) three times and blocked the plate with PBST+0.5% BSA at 150 µl/well. We incubated the plate at room temperature for 1 hour and then washed with PBST three times. […] We incubated the plate at room temperature for 1 hour then washed with PBST three times. […] We incubated the plate at room temperature for 1 hour and then washed with PBST three times. […] We then read the plate using a SpectraMax™ plate reader.

TNFR-1/Ig = molecular target: T2, TNFR-1/Ig; assay: ELISA, TNFR-1/Ig coated, antibody 1 µg/ml
T2 construct: also called Tumor Necrosis Factor Receptor-1
Description: as §1

human CD40 on cells [1] = molecular target: T3, human CD40 on cells (human, UniProt P25942 21-277); assay: cell-based or functional assay
human CD40 on cells [2] = molecular target: T3, human CD40 on cells; assay: cell-based or functional assay; remark: listed apart in the source
[3] = molecular target: T4, human CD40-IgG1 Fc fusion protein (human, UniProt P25942 21-193); assay: SPR BIAcore 3000, CD40-Ig immobilised, antibody injected
T4 construct: extracellular domain; also called CD40-Ig fusion protein; CD40-IgG fusion protein; not shown: human IgG1 Fc

human CD40 on cells [4] = molecular target: T3, human CD40 on cells; assay: cell-based or functional assay; remark: listed apart in the source
[5] = molecular target: T5, human/mouse chimeric CD40 HuD2, D3 (mouse; human, UniProt P27512 20-64; P25942 65-147, limits assumed); assay: ELISA on chimeric CD40
T5 construct: domain: D1;domain: D2-D3

[6] = molecular target: T6, human/mouse chimeric CD40 HuD1 (human; mouse, UniProt P25942 21-64; P27512 65-147, limits assumed); assay: ELISA on chimeric CD40
T6 construct: domain: D1;domain: D2-D3

[7] = molecular target: T7, human/mouse chimeric CD40 HuD1, D3 (human; mouse, UniProt P25942 21-64; P27512 65-94; P25942 95-147, limits assumed); assay: ELISA on chimeric CD40
T7 construct: domain: D1;domain: D2;domain: D3

[8] = molecular target: T8, human/mouse chimeric CD40 HuD3 (mouse; human, UniProt P27512 20-94; P25942 95-147, limits assumed); assay: ELISA on chimeric CD40
T8 construct: domain: D1-D2;domain: D3

[9] = molecular target: T9, human/mouse chimeric CD40 HuD2 (mouse; human, UniProt P27512 20-64; P25942 65-94; P27512 95-147, limits assumed); assay: ELISA on chimeric CD40
T9 construct: domain: D1;domain: D2;domain: D3

rat CD40 on blood cells = molecular target: T10, rat CD40 on blood cells (rat, UniProt A6JXD6 20-289); assay: FACS, whole blood
T10 construct: also called rat blood
T10 sequence: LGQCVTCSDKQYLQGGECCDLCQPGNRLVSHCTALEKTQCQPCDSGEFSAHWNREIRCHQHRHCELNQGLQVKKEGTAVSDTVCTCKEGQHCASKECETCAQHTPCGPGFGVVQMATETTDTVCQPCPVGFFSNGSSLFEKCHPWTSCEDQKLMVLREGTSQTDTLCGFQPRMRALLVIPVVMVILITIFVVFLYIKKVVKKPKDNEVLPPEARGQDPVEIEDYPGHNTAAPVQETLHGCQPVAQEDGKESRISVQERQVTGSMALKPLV

dog CD40 on blood cells = molecular target: T11, dog CD40 on blood cells (dog, UniProt Q7YRL5 21-274); assay: FACS, whole blood
T11 construct: whole, on cells; also called dog blood
T11 sequence (looked up): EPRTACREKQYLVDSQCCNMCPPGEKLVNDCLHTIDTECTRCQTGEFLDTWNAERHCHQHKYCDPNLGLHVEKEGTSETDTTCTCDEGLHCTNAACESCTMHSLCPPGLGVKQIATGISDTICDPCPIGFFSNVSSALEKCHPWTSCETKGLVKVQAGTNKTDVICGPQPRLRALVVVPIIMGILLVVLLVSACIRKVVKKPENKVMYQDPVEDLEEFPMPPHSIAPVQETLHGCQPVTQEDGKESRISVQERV

[10] = molecular target: T12, mouse CD40 on blood cells (mouse, UniProt P27512 20-289); assay: FACS, whole blood
T12 construct: whole, on cells; also called mouse blood

Mouse CD40(D1-D3)-6Xhis = molecular target: T13, Mouse CD40(D1-D3)-6Xhis (mouse, UniProt P27512 20-147, limits assumed); assay: ELISA, 293F supernatant
T13 construct: domain: D1-D3; also called Mouse CD40(D1-D3)-6xHis fusion protein
Excerpt: Binding of anti-CD40 human antibodies were detected with HRP conjugated goat anti-human IgG (FC specific Caltag H10507), diluted 1:2,000.

4-1BB/Ig = molecular target: T14, 4-1BB/Ig; assay: ELISA, 4-1BB/Ig coated, antibody 1 µg/ml
T14 construct: also called CD137
Description: as §1

human CD40 on cells [11] = molecular target: T3, human CD40 on cells; assay: cell-based or functional assay; remark: listed apart in the source
RANK/Ig = assay: ELISA, RANK/Ig coated, antibody 1 µg/ml
Description: as §1

human CD40 on cells [12] = molecular target: T3, human CD40 on cells; assay: cell-based or functional assay; remark: listed apart in the source
human CD40 on cells [13] = molecular target: T3, human CD40 on cells; assay: cell-based or functional assay; remark: listed apart in the source
human CD40 on cells [14] = molecular target: T3, human CD40 on cells; assay: FACS on CD19/CD20+ B cells in whole blood
Description: We incubated aliquots of human and monkey whole blood for 1 hour on ice with increasing concentrations of anti-CD40 antibodies of the invention exemplified herein or with an anti-keyhole limpet hemocyanin (KLH) antibody as a negative control. We then incubated the samples for 30 minutes on ice with anti-human IgG2-conjugated RPE (phycoerythrin). We measured binding by flow cytometry of CD19/CD20 positive B cells and analyzed the histograms of fluorescence intensity (F12-H) versus cell number (Counts) using CellQuest software. We estimated binding (K_D) for each antibody from graphs of mean fluorescence intensity versus antibody concentration. We controlled for depletion of the antibody by measuring binding over a range of cell concentrations.

[15] = molecular target: T4, human CD40-IgG1 Fc fusion protein; assay: ELISA, CD40/Ig coated, antibody 1 µg/ml

T3 sequence (P25942 21-277): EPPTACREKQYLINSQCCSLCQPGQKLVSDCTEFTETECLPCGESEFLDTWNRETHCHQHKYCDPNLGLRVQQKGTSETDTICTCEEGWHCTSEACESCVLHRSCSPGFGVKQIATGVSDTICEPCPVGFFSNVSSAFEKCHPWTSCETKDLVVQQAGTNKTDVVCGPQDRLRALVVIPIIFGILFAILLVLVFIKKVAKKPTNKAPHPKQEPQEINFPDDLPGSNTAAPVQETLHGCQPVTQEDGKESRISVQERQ
T4 sequence (P25942 21-193): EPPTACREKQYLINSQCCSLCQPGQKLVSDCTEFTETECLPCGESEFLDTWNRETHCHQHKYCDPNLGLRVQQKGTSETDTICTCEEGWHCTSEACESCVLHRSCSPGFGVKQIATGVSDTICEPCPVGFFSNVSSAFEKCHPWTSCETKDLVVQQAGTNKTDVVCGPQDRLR
T2 sequence (P19438 whole entry): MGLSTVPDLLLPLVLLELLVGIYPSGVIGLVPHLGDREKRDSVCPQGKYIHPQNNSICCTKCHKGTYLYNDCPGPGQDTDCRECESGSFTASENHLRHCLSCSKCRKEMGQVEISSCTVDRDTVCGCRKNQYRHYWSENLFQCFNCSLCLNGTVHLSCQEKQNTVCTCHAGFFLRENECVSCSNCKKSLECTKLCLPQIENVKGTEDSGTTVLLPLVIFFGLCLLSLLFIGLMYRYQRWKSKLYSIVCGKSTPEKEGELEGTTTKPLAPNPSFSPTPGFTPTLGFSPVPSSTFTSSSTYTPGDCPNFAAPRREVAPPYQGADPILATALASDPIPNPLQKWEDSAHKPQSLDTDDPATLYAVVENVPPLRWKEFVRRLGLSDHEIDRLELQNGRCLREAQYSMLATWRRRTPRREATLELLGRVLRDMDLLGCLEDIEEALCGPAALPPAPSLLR
Sequence of RANK/Ig (Q9Y6Q6 whole entry): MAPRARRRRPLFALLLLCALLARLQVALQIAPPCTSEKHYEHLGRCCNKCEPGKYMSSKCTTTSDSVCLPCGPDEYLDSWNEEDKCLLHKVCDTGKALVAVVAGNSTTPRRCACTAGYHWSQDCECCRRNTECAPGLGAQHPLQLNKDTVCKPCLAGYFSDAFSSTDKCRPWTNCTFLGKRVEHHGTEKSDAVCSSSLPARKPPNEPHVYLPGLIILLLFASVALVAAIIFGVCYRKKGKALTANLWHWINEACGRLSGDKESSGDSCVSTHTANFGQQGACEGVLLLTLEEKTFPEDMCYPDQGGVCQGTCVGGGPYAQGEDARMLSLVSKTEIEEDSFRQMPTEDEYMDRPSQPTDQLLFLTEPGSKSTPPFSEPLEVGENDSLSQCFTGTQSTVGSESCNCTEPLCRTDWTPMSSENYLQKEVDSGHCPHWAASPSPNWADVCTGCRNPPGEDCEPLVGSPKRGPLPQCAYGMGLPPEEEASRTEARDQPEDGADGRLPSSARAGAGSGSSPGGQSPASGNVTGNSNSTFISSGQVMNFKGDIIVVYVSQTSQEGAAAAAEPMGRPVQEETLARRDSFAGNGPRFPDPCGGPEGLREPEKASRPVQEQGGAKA
T1 sequence (P20333 23-257): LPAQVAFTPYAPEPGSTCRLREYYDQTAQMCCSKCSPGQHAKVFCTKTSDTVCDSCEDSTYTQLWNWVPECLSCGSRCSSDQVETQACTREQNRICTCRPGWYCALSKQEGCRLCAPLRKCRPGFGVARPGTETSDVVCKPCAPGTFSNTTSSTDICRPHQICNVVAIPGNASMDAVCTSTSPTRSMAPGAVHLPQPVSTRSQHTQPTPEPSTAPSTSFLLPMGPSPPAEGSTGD
T12 sequence (P27512 20-289): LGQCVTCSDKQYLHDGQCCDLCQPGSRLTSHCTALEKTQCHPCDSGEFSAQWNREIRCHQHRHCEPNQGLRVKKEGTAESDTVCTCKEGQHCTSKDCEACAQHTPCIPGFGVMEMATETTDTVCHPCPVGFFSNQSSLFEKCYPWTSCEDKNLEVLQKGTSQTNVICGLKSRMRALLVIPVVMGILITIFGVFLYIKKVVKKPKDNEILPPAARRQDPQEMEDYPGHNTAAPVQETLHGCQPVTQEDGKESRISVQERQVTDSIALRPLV
T13 sequence (P27512 other isoform, or with tags, fused parts or gaps limits assumed): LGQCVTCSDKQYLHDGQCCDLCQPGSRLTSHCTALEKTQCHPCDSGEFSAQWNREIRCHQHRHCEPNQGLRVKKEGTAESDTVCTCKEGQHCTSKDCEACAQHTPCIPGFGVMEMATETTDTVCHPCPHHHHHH
T8 sequence (P27512 other isoform, or with tags, fused parts or gaps mutant limits assumed): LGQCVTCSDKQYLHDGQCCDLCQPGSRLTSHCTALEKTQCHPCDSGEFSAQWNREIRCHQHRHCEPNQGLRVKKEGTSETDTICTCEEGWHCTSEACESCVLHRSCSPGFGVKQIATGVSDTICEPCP
T6 sequence (P25942 other isoform, or with tags, fused parts or gaps mutant limits assumed): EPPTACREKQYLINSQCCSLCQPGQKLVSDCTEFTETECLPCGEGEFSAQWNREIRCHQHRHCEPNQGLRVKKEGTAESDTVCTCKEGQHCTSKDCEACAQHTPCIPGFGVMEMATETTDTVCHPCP
T7 sequence (P25942 other isoform, or with tags, fused parts or gaps mutant limits assumed): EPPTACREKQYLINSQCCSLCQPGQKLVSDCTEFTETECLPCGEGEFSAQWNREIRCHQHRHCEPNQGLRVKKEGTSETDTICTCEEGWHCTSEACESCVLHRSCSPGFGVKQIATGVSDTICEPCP
T9 sequence (P27512 other isoform, or with tags, fused parts or gaps mutant limits assumed): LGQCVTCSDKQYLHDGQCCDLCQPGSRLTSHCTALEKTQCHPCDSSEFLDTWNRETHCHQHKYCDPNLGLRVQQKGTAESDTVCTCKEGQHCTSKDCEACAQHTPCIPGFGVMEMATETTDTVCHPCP
T5 sequence (P27512 other isoform, or with tags, fused parts or gaps mutant limits assumed): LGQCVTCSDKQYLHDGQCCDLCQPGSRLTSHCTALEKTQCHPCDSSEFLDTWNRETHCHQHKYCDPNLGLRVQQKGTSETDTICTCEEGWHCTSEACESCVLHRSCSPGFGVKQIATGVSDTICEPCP

Row | Binder | CD40 specific signal over the signal for this molecule (TNFR-2/Ig) | CD40 specific signal over the signal for this molecule (TNFR-1/Ig) | DC IL-12p70 secretion with LPS, EC50 (human CD40 on cells [2]) | Kd [3] | binding result [6] | binding result [7] | binding result [8] | binding result (rat CD40 on blood cells) | binding result (dog CD40 on blood cells) | binding result [10] | binding result (Mouse CD40(D1-D3)-6Xhis) | CD40 specific signal over the signal for this molecule (4-1BB/Ig) | Allo DC/T IFNγ secretion, EC50 (human CD40 on cells [11]) | CD40 specific signal over the signal for this molecule (RANK/Ig) | other results
1 | B1 | ≥ 100 fold | ≥ 100 fold | 0.3 µg/mL | 0.348 nM | no binding | no binding | no binding | no binding | no binding | no binding | no binding | ≥ 100 fold | 0.3 µg/mL | ≥ 100 fold | B cell B7-2 upregulation, EC50 (human CD40 on cells [1]): 0.016 µg/mL; B cell CD23 upregulation, EC50 (human CD40 on cells [1]): 0.019 µg/mL; B cell CD71 upregulation, EC50 (human CD40 on cells [1]): 0.00073 µg/mL; B cell ICAM upregulation, EC50 (human CD40 on cells [1]): 0.0153 µg/mL; B cell MHC II upregulation, EC50 (human CD40 on cells [1]): 0.00385 µg/mL; Dendritic cell B7-2 upregulation, EC50 (human CD40 on cells [4]): 0.0714 µg/mL; Dendritic cell CD83 upregulation, EC50 (human CD40 on cells [4]): 0.233 µg/mL; Dendritic cell ICAM upregulation, EC50 (human CD40 on cells [4]): 0.241 µg/mL; Dendritic cell MHC II upregulation, EC50 (human CD40 on cells [4]): 0.252 µg/mL; binding result [5]: no binding; binding result [9]: no binding
2 | B2 | ≥ 100 fold | ≥ 100 fold | 0.1 µg/mL | 0.0704 nM | no binding | no binding | no binding | no binding | no binding | no binding | no binding | ≥ 100 fold | 0.3 µg/mL | ≥ 100 fold | DC B7-1 (CD80), fold increase in median intensity at 1 µg/ml, 72 h (human CD40 on cells [12]): 0.9 fold; DC B7-2 (CD86), fold increase in median intensity at 1 µg/ml, 72 h (human CD40 on cells [12]): 8.4 fold; DC CD83, fold increase in median intensity at 1 µg/ml, 72 h (human CD40 on cells [12]): 10.6 fold; DC ICAM (CD54), fold increase in median intensity at 1 µg/ml, 72 h (human CD40 on cells [12]): 1.2 fold; DC MHC Class II, fold increase in median intensity at 1 µg/ml, 72 h (human CD40 on cells [12]): 2 fold; koff [3]: 3.9e-05 s⁻¹; kon [3]: 354000 M⁻¹ s⁻¹; B cell B7-1 (CD80), fold increase in median intensity at 1 µg/ml (human CD40 on cells [13]): 1.3 fold; B cell B7-2 (CD86), fold increase in median intensity at 1 µg/ml (human CD40 on cells [13]): 0.9 fold; B cell CD23, fold increase in median intensity at 1 µg/ml (human CD40 on cells [13]): 1.1 fold; B cell ICAM (CD54), fold increase in median intensity at 1 µg/ml (human CD40 on cells [13]): 1 fold; B cell MHC Class II, fold increase in median intensity at 1 µg/ml (human CD40 on cells [13]): 1.2 fold
3 | B3 | ≥ 100 fold | ≥ 100 fold | – | – | – | – | – | no binding | no binding | no binding | – | ≥ 100 fold | – | ≥ 100 fold | binding result (human CD40 on cells [14]): binds; binding result [15]: binds
